These results are taken from patent publication US20080279864A1.

Where two headings read alike, the source gives them in different places.

Experiment [1] has as its target N-type (CaV2.2) Ca2+ channel (α1B with β2a and α2δ) in HEK293 cells (human; rat) (UniProt Q00975). In words: cell-based or functional assay.
A further experiment concerns the target I-IIC-YFP (rabbit) (UniProt P15381). Nature of the experiment: FRET two-hybrid, relative dissociation constant against the NTB-CFP/I-IIB-YFP pair.
For experiment [2], the target named is I-IIB-YFP (human) (UniProt Q00975). The description is as above.
For experiment [3] the target is unchanged. Described as above. This is another data set of the same source.
In the next experiment the target is I-IIC-CFP (rabbit) (UniProt P15381). Described as above.
Experiment [4] deals with I-IIB(357-482)-pGBKT7 (I-II loop of α1B fused to the GAL4 binding domain) (human). In words: yeast two-hybrid auto-activation control (empty pGADT7), % of colonies surviving on high stringency plates, mean ± SEM.
Experiment [5] has as its target I-IIC(436-554)-pGBKT7 (I-II loop of α1C fused to the GAL4 binding domain) (rabbit). The description is as above.
The target of experiment [6] is NTB(1-44)-pGBKT7 (human). The experiment is described as above.
Experiment [7] has as its target NTB(56-95)-pGBKT7 (human). The experiment is described as above.
Experiment [8] has as its target I-IIB(357-482)-pGBKT7 (I-II loop of α1B fused to the GAL4 binding domain) (human). Nature of the experiment: yeast two-hybrid auto-activation control (empty pGADT7), filter lift β-galactosidase assay, % of colonies turning blue, mean ± SEM.
For experiment [9], the target named is NTB(1-44)-pGBKT7 (human). Described as above.
Experiment [10] concerns the target NTB(56-95)-pGBKT7 (human). The description is as above.

Chain of I-IIB-YFP (human) (Q00975 357-482): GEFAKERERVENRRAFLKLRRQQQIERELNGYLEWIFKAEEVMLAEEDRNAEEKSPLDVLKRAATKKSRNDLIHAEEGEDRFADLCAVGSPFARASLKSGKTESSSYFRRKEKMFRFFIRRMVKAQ
Chain of N-type (CaV2.2) Ca2+ channel (α1B with β2a and α2δ) in HEK293 cells (human; rat) (Q00975 whole entry, stated change not applied, chain 1 of 3, other chains not shown): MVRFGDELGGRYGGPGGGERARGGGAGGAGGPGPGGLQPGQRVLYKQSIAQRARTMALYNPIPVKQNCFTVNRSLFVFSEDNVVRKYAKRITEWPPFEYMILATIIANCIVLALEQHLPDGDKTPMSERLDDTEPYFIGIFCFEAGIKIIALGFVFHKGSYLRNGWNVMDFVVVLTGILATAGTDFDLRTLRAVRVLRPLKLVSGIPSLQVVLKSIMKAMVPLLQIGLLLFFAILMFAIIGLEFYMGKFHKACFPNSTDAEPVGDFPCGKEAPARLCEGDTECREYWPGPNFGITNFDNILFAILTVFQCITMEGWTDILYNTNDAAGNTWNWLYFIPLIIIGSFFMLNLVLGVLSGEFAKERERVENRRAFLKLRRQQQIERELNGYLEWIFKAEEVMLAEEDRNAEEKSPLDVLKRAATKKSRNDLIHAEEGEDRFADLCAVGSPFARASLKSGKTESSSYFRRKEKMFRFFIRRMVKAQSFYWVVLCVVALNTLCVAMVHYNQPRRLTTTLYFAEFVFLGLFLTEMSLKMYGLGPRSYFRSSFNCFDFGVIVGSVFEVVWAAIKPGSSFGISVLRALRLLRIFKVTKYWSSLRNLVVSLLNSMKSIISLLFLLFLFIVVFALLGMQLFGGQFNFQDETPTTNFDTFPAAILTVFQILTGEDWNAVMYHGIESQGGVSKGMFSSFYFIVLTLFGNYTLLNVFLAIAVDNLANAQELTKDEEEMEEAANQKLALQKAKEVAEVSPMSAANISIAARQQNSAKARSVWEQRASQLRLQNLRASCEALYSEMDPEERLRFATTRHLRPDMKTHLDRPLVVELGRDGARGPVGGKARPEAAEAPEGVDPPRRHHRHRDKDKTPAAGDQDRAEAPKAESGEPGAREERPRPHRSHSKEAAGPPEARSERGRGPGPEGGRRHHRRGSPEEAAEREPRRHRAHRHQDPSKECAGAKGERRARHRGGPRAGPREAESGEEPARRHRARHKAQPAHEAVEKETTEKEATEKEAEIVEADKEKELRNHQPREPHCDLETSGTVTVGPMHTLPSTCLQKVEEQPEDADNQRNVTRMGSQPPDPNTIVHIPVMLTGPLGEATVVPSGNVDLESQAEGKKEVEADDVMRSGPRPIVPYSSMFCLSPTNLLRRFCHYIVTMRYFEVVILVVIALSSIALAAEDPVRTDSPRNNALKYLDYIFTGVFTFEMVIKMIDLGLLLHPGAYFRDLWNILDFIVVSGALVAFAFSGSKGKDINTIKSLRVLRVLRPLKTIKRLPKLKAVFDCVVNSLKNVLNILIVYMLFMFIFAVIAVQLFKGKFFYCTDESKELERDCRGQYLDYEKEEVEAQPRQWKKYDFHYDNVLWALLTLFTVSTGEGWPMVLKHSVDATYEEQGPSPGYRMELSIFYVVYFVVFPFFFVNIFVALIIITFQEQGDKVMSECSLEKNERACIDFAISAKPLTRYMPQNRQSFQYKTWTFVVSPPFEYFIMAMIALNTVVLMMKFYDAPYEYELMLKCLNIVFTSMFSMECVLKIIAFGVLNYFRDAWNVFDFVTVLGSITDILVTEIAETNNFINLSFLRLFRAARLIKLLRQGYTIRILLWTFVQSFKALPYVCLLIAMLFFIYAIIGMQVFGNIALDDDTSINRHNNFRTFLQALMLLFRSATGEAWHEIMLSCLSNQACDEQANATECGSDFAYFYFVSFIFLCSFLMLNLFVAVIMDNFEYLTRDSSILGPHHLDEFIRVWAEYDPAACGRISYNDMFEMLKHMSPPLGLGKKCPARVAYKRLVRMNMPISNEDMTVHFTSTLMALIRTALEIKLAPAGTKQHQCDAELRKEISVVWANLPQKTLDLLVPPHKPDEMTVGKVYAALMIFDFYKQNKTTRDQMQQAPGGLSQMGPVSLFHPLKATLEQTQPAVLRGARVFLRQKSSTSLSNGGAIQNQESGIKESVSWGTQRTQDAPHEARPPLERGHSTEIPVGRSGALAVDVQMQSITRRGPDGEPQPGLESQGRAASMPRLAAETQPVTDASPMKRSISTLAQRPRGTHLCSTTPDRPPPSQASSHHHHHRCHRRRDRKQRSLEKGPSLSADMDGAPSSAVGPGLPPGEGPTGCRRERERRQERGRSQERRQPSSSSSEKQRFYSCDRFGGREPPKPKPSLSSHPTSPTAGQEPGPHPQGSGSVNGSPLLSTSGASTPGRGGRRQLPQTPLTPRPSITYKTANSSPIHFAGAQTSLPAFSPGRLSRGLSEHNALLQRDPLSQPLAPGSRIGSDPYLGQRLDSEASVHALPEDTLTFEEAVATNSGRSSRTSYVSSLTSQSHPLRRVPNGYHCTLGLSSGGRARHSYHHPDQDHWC
Chain of N-type (CaV2.2) Ca2+ channel (α1B with β2a and α2δ) in HEK293 cells (human; rat) (P54290 25-1091, stated change not applied, chain 3 of 3, other chains not shown, further chain): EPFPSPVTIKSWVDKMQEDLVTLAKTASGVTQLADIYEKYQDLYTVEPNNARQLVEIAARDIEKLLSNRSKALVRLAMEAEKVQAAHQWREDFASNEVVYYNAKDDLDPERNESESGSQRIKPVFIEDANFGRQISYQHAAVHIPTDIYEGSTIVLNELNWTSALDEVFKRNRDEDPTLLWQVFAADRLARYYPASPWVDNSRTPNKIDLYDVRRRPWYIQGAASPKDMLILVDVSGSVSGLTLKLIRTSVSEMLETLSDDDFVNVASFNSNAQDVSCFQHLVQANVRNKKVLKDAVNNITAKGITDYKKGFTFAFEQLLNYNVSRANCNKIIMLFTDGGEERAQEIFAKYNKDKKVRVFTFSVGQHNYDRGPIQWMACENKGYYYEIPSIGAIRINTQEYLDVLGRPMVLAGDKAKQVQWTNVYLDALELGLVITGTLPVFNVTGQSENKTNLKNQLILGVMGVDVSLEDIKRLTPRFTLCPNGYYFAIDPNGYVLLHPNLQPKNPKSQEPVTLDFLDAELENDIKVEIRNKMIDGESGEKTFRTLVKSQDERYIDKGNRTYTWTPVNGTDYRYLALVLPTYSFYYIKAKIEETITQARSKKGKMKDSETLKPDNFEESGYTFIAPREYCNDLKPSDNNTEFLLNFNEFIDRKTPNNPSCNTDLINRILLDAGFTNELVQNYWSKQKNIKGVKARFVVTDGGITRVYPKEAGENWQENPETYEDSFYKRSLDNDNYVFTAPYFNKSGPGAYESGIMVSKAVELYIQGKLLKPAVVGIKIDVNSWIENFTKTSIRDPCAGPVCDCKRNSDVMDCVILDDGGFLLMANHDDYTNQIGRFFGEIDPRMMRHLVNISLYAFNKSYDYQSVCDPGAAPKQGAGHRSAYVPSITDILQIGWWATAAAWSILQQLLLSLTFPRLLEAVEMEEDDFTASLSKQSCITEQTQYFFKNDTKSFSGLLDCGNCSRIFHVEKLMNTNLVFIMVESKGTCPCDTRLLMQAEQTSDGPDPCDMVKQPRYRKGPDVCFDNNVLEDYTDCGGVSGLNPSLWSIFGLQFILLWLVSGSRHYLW
Chain of I-IIC-YFP (rabbit) (P15381 436-554): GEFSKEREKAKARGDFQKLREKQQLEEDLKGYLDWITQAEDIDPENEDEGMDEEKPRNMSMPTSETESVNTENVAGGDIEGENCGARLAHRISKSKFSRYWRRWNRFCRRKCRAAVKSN
Chain of I-IIC-CFP (rabbit) (P15381 436-554): as above

For the substance “Gβγ (G protein β1 and γ2 subunits coexpressed) (from UniProt P62871 2-340; P63212 2-68)”, in [1], the W(∞), fraction of channels residing in the willing configuration at steady state, 0 mV (compound-state analysis) was determined as 0.6 and the τ, time-constant with which the steady state is achieved, 0 mV (compound-state analysis) turned out to be 60 ms.

Substance NTB-CFP (from UniProt Q00975 1-95) gave a Kd,EFF relative to NTB/I-IIB with I-IIC-YFP (rabbit) of over 10 fold.

With NTC-CFP (from UniProt P15381 1-53), the Kd,EFF relative to NTB/I-IIB is 8 fold with I-IIB-YFP (human) [2] and over 10 fold with I-IIB-YFP (human) [3].

NTC-YFP (from UniProt P15381 1-53): the Kd,EFF relative to NTB/I-IIB in the experiment with I-IIC-CFP (rabbit) was over 10 fold.

On to “pGADT7 (empty vector; the isolated GAL4 activating domain itself) (from UniProt P04386 768-881)”, for which the High Stringency (%) in experiment [4] was found to be 18.7%; in [5] it was 8.44%; with NTB(1-44)-pGBKT7 (human) [6], 0.98%; in [7], 2.11%. The values for the Filter Lift Assay (%) (in experiment [8]; with NTB(1-44)-pGBKT7 (human) [9]; in [10]) were 9.18%, 47.9% and 32.2%, respectively.
